# Residue numbers refer to the chain shown, from its start.
# T1: XCR1-SMALP
# T1 sequence (P46094 whole entry, species assumed, looked up): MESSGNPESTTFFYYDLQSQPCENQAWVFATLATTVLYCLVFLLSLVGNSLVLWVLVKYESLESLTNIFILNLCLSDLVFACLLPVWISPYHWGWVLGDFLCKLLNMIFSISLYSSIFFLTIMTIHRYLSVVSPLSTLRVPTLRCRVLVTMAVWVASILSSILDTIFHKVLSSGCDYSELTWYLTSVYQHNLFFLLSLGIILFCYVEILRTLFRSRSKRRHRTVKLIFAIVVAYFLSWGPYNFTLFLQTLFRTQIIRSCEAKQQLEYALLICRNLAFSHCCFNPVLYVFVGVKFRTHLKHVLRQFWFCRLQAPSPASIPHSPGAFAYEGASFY
# T2: XCR1-SMALP-GFP
# T2 sequence (P46094 whole entry, species assumed, looked up): T1 sequence (P46094 whole entry, species assumed, looked up)
# B1: LIBC673952-1 (Fab on yeast) (Fab, V domains shown)
# VH: QVQLQESGPGLVKPSQTLSLTCTVSGGSIRRGGDYWSWIRQHPGKGLEWIGHVYYTGQTTYNPSFRGRVTISVNTYKNQFSLKLSSVTAADTAVYYCARDYDILTGYSYYYYGLDVWGQGTTVTVSS
# VL: DIVMTQSPLSLPVTPGEPASISCRSSQSLLHRSGYNYLDWYLQKPGQSPQLLIYQGSNRASGVPDRFSGSGSGTDFTLKISRVEAEDVGVYYCRQARALPRTFGQGTKVEIKR
# B2: LIBC674200-1 (Fab on yeast) (Fab, V domains shown)
# VH: QVQLQESGPGLVKPSQTLSLTCTVSGGSIRRGGDYWSWIRQHPGKGLEWIGHVYYTGQTAYNPNFRNRVRISVNTYKNQFSLKLSSVTAADTAVYYCARGYDVSGYSYYYYGMDVWGQGTTVTVSS
# VL: B1 VL with Q55L, D65G, R94M, A96S, R97L, A98Q, L99T
# B3: LIBC674090-1 (Fab on yeast) (Fab, V domains shown)
# VH: B2 VH with V53I, T56A, Q58S, N67G, V103T, M113L
# VL: B1 VL with R94M, A96S, R97L, A98Q, L99T
# B4: LIBC674229-1 (Fab on yeast) (Fab, V domains shown)
# VH: B2 VH with V53I, Y55Q, A60K, N64S, R66K, N67G
# VL: B1 VL with R94M, A96S, R97L, A98Q, L99T
# B5: LIBC680562-1 (yeast-displayed Fab) (Fab, V domains shown)
# VH: QVQLQESGPGLVKPSQTLSLTCTVSGGSIRRGGDYWAWIRQHPGKGLEWIGHIYQTGSTNYNPRFKGRATISVNTYKNQFSLKLSSVTAADTAVYYCARNYDTLTGYSYYYYGMDVWGQGTTVTVSS
# VL: DIQMTQSPSSLSASVGDRVTITCRASQSISSYLNWYQQKPGKAPKLLIYSARRLSSGVPSRFSGSGSGTDFTLTISSLQPEDFATYYCQQYAKSPITFGGGTKVEIKR
# B6: LIBC680574-1 (yeast-displayed Fab) (Fab, V domains shown)
# VH: B5 VH with I53V, Q55Y, N60K, R64S, G67D
# VL: B5 VL with S50G, S55G, A92S, K93S, S94L, I96V
# B7: LIBC681594-1 (yeast-displayed Fab) (Fab, V domains shown)
# VH: B5 VH
# VL: B5 VL with S50K, R53K, Y91F, A92G, K93S, S94M, I96L
# B8: LIBC681593-1 (yeast-displayed Fab) (Fab, V domains shown)
# VH: B5 VH
# VL: B5 VL with S50N, S55G, A92R, K93S, I96V
# B9: LIBC680812-1 (yeast-displayed Fab) (Fab, V domains shown)
# VH: B5 VH with A37G, I53V, N60K, R64S, G67D
# VL: B5 VL with A92R, K93S, S94Y
# B10: LIBC680800-1 (yeast-displayed Fab) (Fab, V domains shown)
# VH: B5 VH
# VL: B5 VL with R53A, A92R, S94F, I96L
# Target: T1, XCR1-SMALP
# Test: flow cytometry, yeast-displayed Fab, 50 nM XCR1 SMALP
row,Binder,relative binding fold change compared to LIBC523797-1(Fab)
1,B1,0.59 fold
2,B2,0.79 fold
3,B3,0.74 fold
4,B4,0.8 fold

# Target: T2, XCR1-SMALP-GFP
# Test: flow cytometry, yeast-displayed Fab, 25 nM XCR1-SMALP-GFP, after background subtraction
row,Binder,Relative binding fold change compared to LIBC528116 (Fab)
1,B5,0.64 fold
2,B6,0.56 fold
3,B7,1.04 fold
4,B8,0.72 fold
5,B9,0.59 fold
6,B10,0.47 fold

# — patent US20250277029A1, “CANNABINOID TYPE 1 RECEPTOR BINDING PROTEINS AND USES THEREOF” (AMGEN INC., priority 2022, published 2025)
